Earlier results as cited in article PMC9106955.

Biological target: GLP-1R N-terminal domain (UniProt P43220)
Chain of UniProt P43220 (P43220 24-145): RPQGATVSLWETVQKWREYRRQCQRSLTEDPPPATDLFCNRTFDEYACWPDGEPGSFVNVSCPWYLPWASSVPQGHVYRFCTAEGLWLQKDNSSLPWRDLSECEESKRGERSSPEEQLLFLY

Question: Which Kd does the source give for Exendin-4 (from UniProt P26349) here?
Answer: The Kd was 6 nM.
